In publication PMC3694950:

Molecular target: mitochondrial large-conductance Ca2+-regulated potassium channel (mitoBKCa channel) (human (endogenous in U-87 MG)) (UniProt Q12791)
Sequence of UniProt Q12791 (Q12791 whole entry, looked up): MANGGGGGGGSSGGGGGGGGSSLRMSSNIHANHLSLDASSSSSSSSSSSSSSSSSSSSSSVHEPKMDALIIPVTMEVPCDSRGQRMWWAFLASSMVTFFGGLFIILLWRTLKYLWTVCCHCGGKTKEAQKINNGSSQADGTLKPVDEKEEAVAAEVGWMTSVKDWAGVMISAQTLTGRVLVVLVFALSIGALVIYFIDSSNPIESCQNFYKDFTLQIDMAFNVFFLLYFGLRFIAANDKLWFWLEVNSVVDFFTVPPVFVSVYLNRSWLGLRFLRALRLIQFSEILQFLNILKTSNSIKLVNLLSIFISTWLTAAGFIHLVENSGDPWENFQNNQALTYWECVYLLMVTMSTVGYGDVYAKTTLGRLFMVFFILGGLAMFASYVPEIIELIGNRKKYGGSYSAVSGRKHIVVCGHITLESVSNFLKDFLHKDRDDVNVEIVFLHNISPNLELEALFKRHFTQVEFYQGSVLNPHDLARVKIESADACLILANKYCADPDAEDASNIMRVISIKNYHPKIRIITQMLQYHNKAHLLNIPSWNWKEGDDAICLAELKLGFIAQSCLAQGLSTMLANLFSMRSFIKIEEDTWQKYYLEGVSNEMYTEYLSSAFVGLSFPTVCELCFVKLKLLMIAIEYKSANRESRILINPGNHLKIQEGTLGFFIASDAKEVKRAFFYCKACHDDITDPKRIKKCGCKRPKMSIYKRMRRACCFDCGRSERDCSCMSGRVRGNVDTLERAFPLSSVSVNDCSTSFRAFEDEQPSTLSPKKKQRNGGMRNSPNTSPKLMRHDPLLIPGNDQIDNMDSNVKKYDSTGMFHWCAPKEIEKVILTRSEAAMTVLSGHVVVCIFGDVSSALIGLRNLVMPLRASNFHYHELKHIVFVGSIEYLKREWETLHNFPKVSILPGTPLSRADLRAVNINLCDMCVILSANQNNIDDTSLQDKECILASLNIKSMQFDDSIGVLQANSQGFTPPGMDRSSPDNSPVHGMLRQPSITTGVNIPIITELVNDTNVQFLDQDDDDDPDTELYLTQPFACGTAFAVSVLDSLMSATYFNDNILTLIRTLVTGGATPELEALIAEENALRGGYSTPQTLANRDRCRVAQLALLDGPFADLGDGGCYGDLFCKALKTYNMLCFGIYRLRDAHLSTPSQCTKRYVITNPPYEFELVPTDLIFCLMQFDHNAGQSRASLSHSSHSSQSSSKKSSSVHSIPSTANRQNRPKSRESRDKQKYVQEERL

Question: How did the open probability (Po) of the mitoBKCa channel in patch-clamped mitoplasts (inside-out) after 100 nM iberiotoxin; control Po 0.95 turn out when “iberiotoxin (from UniProt P24663 1-37) (peptide)” was run?
Answer: 0.15 Po
